Where a chain is given by its changes, count along the chain named. Names and notes keep the numbering of the source.
Biological target: T1, PACT C213F, mammalian two-hybrid fusion (human, UniProt O75569 1-313, C213F)
T1 sequence (looked up): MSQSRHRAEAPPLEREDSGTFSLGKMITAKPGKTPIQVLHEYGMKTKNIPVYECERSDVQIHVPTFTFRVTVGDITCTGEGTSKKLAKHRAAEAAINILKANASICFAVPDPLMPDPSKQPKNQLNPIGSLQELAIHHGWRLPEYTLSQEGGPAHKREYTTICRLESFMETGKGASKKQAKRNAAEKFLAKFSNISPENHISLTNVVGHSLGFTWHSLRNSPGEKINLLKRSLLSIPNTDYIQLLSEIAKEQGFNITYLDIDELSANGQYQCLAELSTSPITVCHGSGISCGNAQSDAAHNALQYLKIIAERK
Test: two-hybrid

fold over wt PACT-wt PACT interaction (luciferase reporter): ~9 fold
B1: PACT C77S, mammalian two-hybrid fusion (natural protein, human, UniProt O75569 1-313, looked up)
chain: T1 sequence (looked up) with C77S, F213C

Source: PMC12949589 (Neurobiology of disease, 2020)
